# Data taken from the RNAGym collection of RNA variant scans (doi:10.1093/nar/gkz1192).
# B1: CPEB3 Ribozyme (parent)
# chain: UAACAGGGGGCCACAGCAGAAGCGUUCACGUCGCAGCCCCUGUCAGAUUCUGGUGAAUCUGCGAAUUCUGCUGUAUAUCUC
# Variants of: B1
# Test: self-cleavage, relative activity (ratio to wild type); higher = more cleavage; in vitro, sequencing
# Procedure, shortened: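 CPEB3 self-cleaving ribozyme mutant libraries were made by rounds of error-prone PCR, barcoded, and transcribed in vitro with T7 RNA polymerase for 5 hours at 37°C. Cleavage occurred during transcription and a 15 min DNase I step before EDTA stop. RNAs were reverse transcribed with template switching and Illumina-sequenced, with DNA sequencing mapping barcodes to variants. Relative activity is the variant's cleaved/total read fraction divided by wild type's (minimum 5 reads), averaged across three batches.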
row,Variant,self-cleavage
1,UAACAGGGGGCCACAGCAGAAGCGUUCACGUCGCAGCCCUUGUCAGAUUCUGGUGAAUCUGCGAAUUCUGCUGUAUAUCAC [C40U U80A],0.67
2,UAACAGGGGGCCACAGCAGAAGCGUUCACGUCGCAGCCCUUGUCAGAUUCUGGUGAAUCUGCGAAUUCUGCUGUAUAUCCC [C40U U80C],0.76
3,UAACAGGGGGCCACAGCAGAAGCGUUCACGUCGCAGCCCUUGUCAGAUUCUGGUGAAUCUGCGAAUUCUGCUGUAUAACUC [C40U U78A],0.75
4,UAACAGGGGGCCACAGCAGAAGCGUUCACGUCGCAGCCCUUGUCAGAUUCUGGUGAAUCUGCGAAUUCUGCUGUAUACCUC [C40U U78C],0.56
5,UAACAGGGGGCCACAGCAGAAGCGUUCACGUCGCAGCCCUUGUCAGAUUCUGGUGAAUCUGCGAAUUCUGCCGUAUAUCUC [C40U U72C],0.9
6,UAACAGGGGGCCACAGCAGAAGCGUUCACGUCGCAGCCCUUGUCAGAUUCUGGUGAAUCUGCGAAUUCUGCAGUAUAUCUC [C40U U72A],0.39
7,UAACAGGGGGCCACAGCAGAAGCGUUCACGUCGCAGCCCUUGUCAGAUUCUGGUGAAUCUGCGAAUUCUGCGGUAUAUCUC [C40U U72G],0.32
8,UAACAGGGGGCCACAGCAGAAGCGUUCACGUCGCAGCCCUUGUCAGAUUAUGGUGAAUCUGCGAAUUCUGCUGUAUAUCUC [C40U C50A],0.46
9,UAACAGGGGGCCACAGCAGAAGCGUUCACGUCGCAGCCCCAGUCGGAUUCUGGUGAAUCUGCGAAUUCUGCUGUAUAUCUC [U41A A45G],0.24
10,UAACAGGGGGCCACAGCAGAAGCGUUCACGUCGCAGCCCCAGUCCGAUUCUGGUGAAUCUGCGAAUUCUGCUGUAUAUCUC [U41A A45C],0.18
11,UAACAGGGGGCCACAGCAGAAGCGUUCACGUCGCAGCCCCAGUCUGAUUCUGGUGAAUCUGCGAAUUCUGCUGUAUAUCUC [U41A A45U],0.2
12,UAACAGGGGGCCACAGCAGAAGCGUUCACGUCGCAGCCCUUGCCAGAUUCUGGUGAAUCUGCGAAUUCUGCUGUAUAUCUC [C40U U43C],0.39
13,UAACAGGGGGCCACAGCAGAAGCGUUCACGUCGCAGCCCUUGACAGAUUCUGGUGAAUCUGCGAAUUCUGCUGUAUAUCUC [C40U U43A],0.92
14,UAACAGGGGGCCACAGCAGAAGCGUUCACGUCGCAGCCCUUGUCAGAUUCUGGUGAAUCUGCGAAUUCUGCUGUAUGUCUC [C40U A77G],0.58
15,UAACAGGGGGCCACAGCAGAAGCGUUCACGUCGCAGCCCUUGUCAGAUUCUGGUGAAUCUGCGAAUUCUGCUGUAUUUCUC [C40U A77U],0.81
16,UAACAGGGGGCCACAGCAGAAGCGUUCACGUCGCAGCCCUUGUCAGAUUCUGGUGAAUCUGCGAAUUCUGCUGUAUCUCUC [C40U A77C],0.74
17,UAACAGGGGGCCACAGCAGAAGCGUUCACGUCGCAGCCCUUGUCAGAUUCUGGUGAAUCUGCGGAUUCUGCUGUAUAUCUC [C40U A64G],0.54
18,UAACAGGGGGCCACAGCAGAAGCGUUCACGUCGCAGCCCUUGUCAGAUUCUGGUGAAUCUGCGUAUUCUGCUGUAUAUCUC [C40U A64U],0.27
19,UAACAGGGGGCCACAGCAGAAGCGUUCACGUCGCAGCCCUUGUCAGAUUCUGGAGAAUCUGCGAAUUCUGCUGUAUAUCUC [C40U U54A],1.08
20,UAACAGGGGGCCACAGCAGAAGCGUUCACGUCGCAGCCCUUGUCAGAUUCUGGGGAAUCUGCGAAUUCUGCUGUAUAUCUC [C40U U54G],0.6
21,UAACAGGGGGCCACAGCAGAAGCGUUCACGUCGCAGCCCUUGUCAGAUUCUGGCGAAUCUGCGAAUUCUGCUGUAUAUCUC [C40U U54C],0.7
22,UAACAGGGGGCCACAGCAGAAGCGUUCACGUCGCAGCCCUUGUCAGAUUCUGGUGACUCUGCGAAUUCUGCUGUAUAUCUC [C40U A57C],0.46
23,UAACAGGGGGCCACAGCAGAAGCGUUCACGUCGCAGCCCUUGUCAGAUUCUGGUGAGUCUGCGAAUUCUGCUGUAUAUCUC [C40U A57G],0.36

row,Variant,self-cleavage
1,UAACAGGGGGCCACAGCAGAAGCGUUCACGUCGCAGCCCUUGUCAGAUUCUGGUGAUUCUGCGAAUUCUGCUGUAUAUCUC [C40U A57U],0.61
2,UAACAGGGGGCCACAGCAGAAGCGUUCACGUCGCAGCCCUUGUCAGAUUCUGGUGAAUCUGCGAAUCCUGCUGUAUAUCUC [C40U U67C],0.23
3,UAACAGGGGGCCACAGCAGAAGCGUUCACGUCGCAGCCCUUGUCAGAUUCUGGUGAAUCUGCGAAUUCUGCUGGAUAUCUC [C40U U74G],1.04
4,UAACAGGGGGCCACAGCAGAAGCGUUCACGUCGCAGCCCUUGUCAGAUUCUGGUGAAUCUGCGAAUUCUGCUGCAUAUCUC [C40U U74C],1.08
5,UAACAGGGGGCCACAGCAGAAGCGUUCACGUCGCAGCCCUUGUCAGAUACUGGUGAAUCUGCGAAUUCUGCUGUAUAUCUC [C40U U49A],0.2
6,UAACAGGGGGCCACAGCAGAAGCGUUCACGUCGCAGCCCUUGUCAGAUCCUGGUGAAUCUGCGAAUUCUGCUGUAUAUCUC [C40U U49C],0.36
7,UAACAGGGGGCCACAGCAGAAGCGUUCACGUCGCAGCCCCAGUCAGCUUCUGGUGAAUCUGCGAAUUCUGCUGUAUAUCUC [U41A A47C],0.18
8,UAACAGGGGGCCACAGCAGAAGCGUUCACGUCGCAGCCCUUGUCAGAUUCUGGUGAAUCUGCGAAUUCUGCUGUACAUCUC [C40U U76C],0.92
9,UAACAGGGGGCCACAGCAGAAGCGUUCACGUCGCAGCCCUUGUCAGAUUCUGGUGAAUCUGCGAAUUCUGAUGUAUAUCUC [C40U C71A],0.17
10,UAACAGGGGGCCACAGCAGAAGCGUUCACGUCGCAGCCCUUGUCAGAUUCUGGUGAAUCUGCGAAAUCUGCUGUAUAUCUC [C40U U66A],0.23
11,UAACAGGGGGCCACAGCAGAAGCGUUCACGUCGCAGCCCUUGUCAGAUUCUGGUGAAUCUGCGAACUCUGCUGUAUAUCUC [C40U U66C],0.33
12,UAACAGGGGGCCACAGCAGAAGCGUUCACGUCGCAGCCCUUGUCAGAUUCUGAUGAAUCUGCGAAUUCUGCUGUAUAUCUC [C40U G53A],0.84
13,UAACAGGGGGCCACAGCAGAAGCGUUCACGUCGCAGCCCUUGUCAGAUUCUGGUGAAUCUGCGAAUUCUUCUGUAUAUCUC [C40U G70U],0.16
14,UAACAGGGGGCCACAGCAGAAGCGUUCACGUCGCAGCCCUUAUCAGAUUCUGGUGAAUCUGCGAAUUCUGCUGUAUAUCUC [C40U G42A],0.27
15,UAACAGGGGGCCACAGCAGAAGCGUUCACGUCGCAGCCCUUGUCAGAUUCUGGUGAAUCUGCGAAUUGUGCUGUAUAUCUC [C40U C68G],0.28
16,UAACAGGGGGCCACAGCAGAAGCGUUCACGUCGCAGCCCUUGUCAGAUUCUGGUGAAUCUGCGAUUUCUGCUGUAUAUCUC [C40U A65U],0.37
17,UAACAGGGGGCCACAGCAGAAGCGUUCACGUCGCAGCCCUUGUCAGAUUCUGGUGAAUCUGCGAGUUCUGCUGUAUAUCUC [C40U A65G],0.27
18,UAACAGGGGGCCACAGCAGAAGCGUUCACGUCGCAGCCCUUGUCAGAUUCUGGUGGAUCUGCGAAUUCUGCUGUAUAUCUC [C40U A56G],0.48
19,UAACAGGGGGCCACAGCAGAAGCGUUCACGUCGCAGCCCUUGUCAGAUUCUGGUGUAUCUGCGAAUUCUGCUGUAUAUCUC [C40U A56U],0.32
20,UAACAGGGGGCCACAGCAGAAGCGUUCACGUCGCAGCCCUCGUCAGAUUCUGGUGAAUCUGCGAAUUCUGCUGUAUAUCUC [C40U U41C],0.92
21,UAACAGGGGGCCACAGCAGAAGCGUUCACGUCGCAGCCCUGGUCAGAUUCUGGUGAAUCUGCGAAUUCUGCUGUAUAUCUC [C40U U41G],0.16
22,UAACAGGGGGCCACAGCAGAAGCGUUCACGUCGCAGCCCUAGUCAGAUUCUGGUGAAUCUGCGAAUUCUGCUGUAUAUCUC [C40U U41A],0.25
23,UAACAGGGGGCCACAGCAGAAGCGUUCACGUCGCAGCCCUUGUCAGACUCUGGUGAAUCUGCGAAUUCUGCUGUAUAUCUC [C40U U48C],0.25

row,Variant,self-cleavage
1,UAACAGGGGGCCACAGCAGAAGCGUUCACGUCGCAGCCCUUGUCAGAUUCUGGUGAAUCUGCGAAUUCUGCUCUAUAUCUC [C40U G73C],1.22
2,UAACAGGGGGCCACAGCAGAAGCGUUCACGUCGCAGCCCUUGUCAGAUUCUGGUGAAACUGCGAAUUCUGCUGUAUAUCUC [C40U U58A],0.3
3,UAACAGGGGGCCACAGCAGAAGCGUUCACGUCGCAGCCCUUGUCAGAUUCUGGUGAACCUGCGAAUUCUGCUGUAUAUCUC [C40U U58C],0.24
4,UAACAGGGGGCCACAGCAGAAGCGUUCACGUCGCAGCCCUUGUCAGAUUCUGGUGAAUCUGCGAAUUCUGCUGUGUAUCUC [C40U A75G],0.5
5,UAACAGGGGGCCACAGCAGAAGCGUUCACGUCGCAGCCCUUGUCAGAUUCUGGUGAAUCUGCGAAUUCUGCUGUUUAUCUC [C40U A75U],0.74
6,UAACAGGGGGCCACAGCAGAAGCGUUCACGUCGCAGCCCUUGUCAGAUUCUGGUGAAUCUGCGAAUUCCGCUGUAUAUCUC [C40U U69C],0.36
7,UAACAGGGGGCCACAGCAGAAGCGUUCACGUCGCAGCCCUUGUCAGAUUCUGGUGAAUCUGCGAAUUCAGCUGUAUAUCUC [C40U U69A],0.41
8,UAACAGGGGGCCACAGCAGAAGCGUUCACGUCGCAGCCCUUGUCAGAUUCUGGUGAAUCUGCGAAUUCGGCUGUAUAUCUC [C40U U69G],0.57
9,UAACAGGGGGCCACAGCAGAAGCGUUCACGUCGCAGCCCUUGUCAGAUUCUGGUGAAUUUGCGAAUUCUGCUGUAUAUCUC [C40U C59U],0.28
10,UAACAGGGGGCCACAGCAGAAGCGUUCACGUCGCAGCCCUUGUCAGAUUCUGGUAAAUCUGCGAAUUCUGCUGUAUAUCUC [C40U G55A],0.67
11,UAACAGGGGGCCACAGCAGAAGCGUUCACGUCGCAGCCCUUGUCAGAUUCUGGUUAAUCUGCGAAUUCUGCUGUAUAUCUC [C40U G55U],0.49
12,UAACAGGGGGCCACAGCAGAAGCGUUCACGUCGCAGCCCUUGUCAGAUUCCGGUGAAUCUGCGAAUUCUGCUGUAUAUCUC [C40U U51C],0.65
13,UAACAGGGGGCCACAGCAGAAGCGUUCACGUCGCAGCCCUUGUCAGAUUCGGGUGAAUCUGCGAAUUCUGCUGUAUAUCUC [C40U U51G],0.49
14,UAACAGGGGGCCACAGCAGAAGCGUUCACGUCGCAGCCCUUGUCAGAUUCAGGUGAAUCUGCGAAUUCUGCUGUAUAUCUC [C40U U51A],0.84
15,UAACAGGGGGCCACAGCAGAAGCGUUCACGUCGCAGCCCUUGUCAGAUUCUGGUGAAUCUGCGAAUUCUGCUGUAUAUGUC [C40U C79G],1.24
16,UAACAGGGGGCCACAGCAGAAGCGUUCACGUCGCAGCCCUUGUCAGAUUCUGGUGAAUCAGCGAAUUCUGCUGUAUAUCUC [C40U U60A],0.34
17,UAACAGGGGGCCACAGCAGAAGCGUUCACGUCGCAGCCCUUGUCAGAUUCUGGUGAAUCGGCGAAUUCUGCUGUAUAUCUC [C40U U60G],0
18,UAACAGGGGGCCACAGCAGAAGCGUUCACGUCGCAGCCCUUGUCAGAUUCUGGUGAAUCCGCGAAUUCUGCUGUAUAUCUC [C40U U60C],0.3
19,UAACAGGGGGCCACAGCAGAAGCGUUCACGUCGCAGCCCUUGUCAAAUUCUGGUGAAUCUGCGAAUUCUGCUGUAUAUCUC [C40U G46A],0.18
20,UAACAGGGGGCCACAGCAGAAGCGUUCACGUCGCAGCCCCAGUCAGAUUCUGGUGAAUCUGCGAAUUCUGCUGUAUAUCUC [U41A],0.3
21,UAACAGGGGGCCACAGCAGAAGCGUUCACGUCGCAGCCCUUGUAAGAUUCUGGUGAAUCUGCGAAUUCUGCUGUAUAUCUC [C40U C44A],0.52
22,UAACAGGGGGCCACAGCAGAAGCGUUCACGUCGCAGCCCUUGUCAGAUUCUGGUGAAUCUACGAAUUCUGCUGUAUAUCUC [C40U G61A],0.42
